Results as given in publication PMC5540134 (Biochemistry, 2017).

T1: WT-UreE dimer (Helicobacter pylori urease accessory protein UreE) (Helicobacter pylori, UniProt Q09064 1-170)
T1 sequence: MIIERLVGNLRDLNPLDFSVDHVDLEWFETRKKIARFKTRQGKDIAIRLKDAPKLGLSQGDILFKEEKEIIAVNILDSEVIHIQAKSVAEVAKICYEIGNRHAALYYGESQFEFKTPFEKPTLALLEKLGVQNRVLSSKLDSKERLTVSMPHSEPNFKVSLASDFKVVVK

B1: WT-HypA (Helicobacter pylori hydrogenase maturation protein HypA, unmodified N-terminus) (natural protein)
chain: MHEYSVVSSLIALCEEHAKKNQAHKIERVVVGIGERSAMDKSLFVSAFETFREESLVCKDAILDIVDEKVELECKDCSHVFKPNALDYGVCEKCHSKNVIITQGNEMRLLSLEMLAE
B2: L2*-HypA (Met1_His2insLeu variant of Helicobacter pylori HypA) (natural protein)
chain: MLHEYSVVSSLIALCEEHAKKNQAHKIERVVVGIGERSAMDKSLFVSAFETFREESLVCKDAILDIVDEKVELECKDCSHVFKPNALDYGVCEKCHSKNVIITQGNEMRLLSLEMLAE

Biological target: T1, WT-UreE dimer (Helicobacter pylori …)
Assay: ITC

Row | Binder | Kd [nM] | dH [kcal/mol] | stoichiometry N [HypA per UreE dimer]
1 | B1 | 960 ± 90 | -6.27 ± 0.06 | 1.5 ± 0.1
2 | B2 | 690 ± 110 | -3.86 ± 0.06 | 1.6 ± 0.2
